In patent publication US20180230214A1 (Memorial Sloan Kettering, published 2018) one finds Kd data, which are given here for 4 molecules.

Sequences and labels used below:
B1: m906 anti-CD56 Fab (Fab, V domains shown)
VH: EVQLVQSGAEVKKPGSSVKVSCKASGGTFTGYYMHWVRQAPGQGLEWMGWINPNSGGTNYAQKFQGRVTMTRDTSISTAYMELSRLRSDDTAVYYCARDLSSGYSGYFDYWGQGTLVTVSS
VL: DVVMTQSPLSLPVTPGEPASISCRSSQSLLHSNGYNFLDWYLQKPGQSPQLLIYLGSNRASGVPDRFSGSGSGTDFTLKISRVEADDVGVYYCMQSLQTPWTFGHGTKVEIKR
notes: Human Fab from light chain shuffling of a phage display clone; also called Fab46-19
B2: m903 anti-CD56 Fab (Fab, V domains shown)
VH: B1 VH
VL: not shown
notes: Human Fab from light chain shuffling of a phage display clone; also called Fab46-E5
B3: m904 anti-CD56 Fab (Fab, V domains shown)
VH: B1 VH
VL: not shown
notes: Human Fab from light chain shuffling of a phage display clone; also called Fab46-H3
B4: m905 anti-CD56 Fab (Fab, V domains shown)
VH: B1 VH
VL: B1 VL with F37Y, D39N, A85G, D86E, V90D, S96A, T99S, W101F, H105Q, V109L
notes: Human Fab from light chain shuffling of a phage display clone; also called Fab46-8

Substitutions are numbered along the chain they refer to.

This experiment concerns the target T1, human CD56 (human, UniProt P13591 20-718, limits assumed).
T1 construct: also called neural cell adhesion molecule
As to the kind of experiment: Biacore (surface plasmon resonance), Fab. The text has this: CD56 Fab selection: CD56-binding Fabs were selected with phage display technology in two steps, as previously described (Feng, et al. A novel human monoclonal antibody that binds with high affinity to mesothelin-expressing cells and kills them by antibody-dependent cell-mediated cytotoxicity. Mol Cancer Ther. 8(5):1113-1118 (2009)). Firstly, CD56 Fabs were identified by panning and screening of a large naïve human antibody library through multiple rounds of binding and amplification. In the second step, the selected clone with the best in vitro and in vivo binding property was affinity matured through a light chain shuffling process, where the VH of the clone was combined with the VL repertoire from the original library. The sub-library was further panned and screened with CD56 to obtain Fab clones with the same epitope but different affinities. Binding of the Fabs was confirmed with ELISA and affinities estimated with Surface Plasmon Resonance method on a Biacore Processing unit X100.
B1 registered a Kd of 4.49 nM.
Then B2, with 236 nM.
Then B3, with 90.9 nM.
Then B4, with 9.17 nM.
